Here are results for four molecules from patent publication US20190389914A1 (University of California, published 2019).

Experiment [1] has as its target GAL4 activation domain fusion to HAB1^!-3 (pACT-HAB1^!-3; D204A in HAB1^!-2) (Arabidopsis thaliana (Mouse-ear cress)) (UniProt Q9CAJ0). Nature of the experiment: Y2H, mandipropamid (FIG. 5).
Experiment [2] has as its target GAL4 activation domain fusion to HAB1 (pACT-HAB1), wild type (Arabidopsis thaliana (Mouse-ear cress)) (UniProt Q9CAJ0). Nature of the experiment: Y2H, mandipropamid (FIG. 6).
The target of experiment [3] is GAL4 activation domain fusion to HAB1^V393R (Arabidopsis thaliana (Mouse-ear cress)) (UniProt Q9CAJ0). Put plainly: Y2H, ABA, beta-gal staining (FIG. 1).
Experiment [4] deals with T1, 6x-His-PYR1 (recombinant wild type, E. coli) (Arabidopsis, UniProt O49686 1-191).
T1 construct: Previously constructed (Park et al., 2009); also called 6×-His-PYR1; wild type PYR1; not shown: 6x-His tag
T1 sequence: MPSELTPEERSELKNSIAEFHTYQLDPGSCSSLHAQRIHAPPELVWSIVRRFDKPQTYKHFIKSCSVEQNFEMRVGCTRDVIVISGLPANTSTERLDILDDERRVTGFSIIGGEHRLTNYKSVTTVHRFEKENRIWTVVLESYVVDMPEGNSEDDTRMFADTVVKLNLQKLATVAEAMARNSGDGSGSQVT
Nature of the experiment: pull-down on His-tag resin, SDS-PAGE (FIG. 8).

Experiment [5] concerns the target T2, GAL4 activation domain fusion to HAB1^V393R (Arabidopsis thaliana (Mouse-ear cress), UniProt Q9CAJ0 4-511).
T2 construct: Mutant of the pACT-HAB1 template, which lacks the three N-terminal amino acids of HAB1; Denoted HAB1^!
T2 sequence: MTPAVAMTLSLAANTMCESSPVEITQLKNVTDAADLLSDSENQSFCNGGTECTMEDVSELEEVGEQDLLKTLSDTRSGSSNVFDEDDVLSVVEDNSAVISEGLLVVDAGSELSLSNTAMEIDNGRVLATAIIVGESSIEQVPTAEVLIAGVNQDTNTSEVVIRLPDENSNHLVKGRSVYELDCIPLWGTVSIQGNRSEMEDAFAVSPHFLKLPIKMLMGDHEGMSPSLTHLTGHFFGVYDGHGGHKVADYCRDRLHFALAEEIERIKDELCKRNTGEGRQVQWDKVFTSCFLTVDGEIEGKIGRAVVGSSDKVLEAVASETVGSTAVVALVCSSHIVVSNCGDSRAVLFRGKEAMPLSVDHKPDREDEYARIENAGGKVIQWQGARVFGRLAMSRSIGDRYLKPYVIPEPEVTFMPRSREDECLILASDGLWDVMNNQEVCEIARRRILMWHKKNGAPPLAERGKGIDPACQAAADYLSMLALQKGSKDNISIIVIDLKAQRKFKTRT
Nature of the experiment: Y2H, mandipropamid (FIG. 3).

Experiment [6] concerns the target T3, GAL4 activation domain fusion to HAB1^!-2 (pACT-HAB1^!-2; HAB1^V393R/R505A) (Arabidopsis thaliana (Mouse-ear cress), UniProt Q9CAJ0 4-511).
T3 construct: R505A introduced into the pACT clone carrying V393R; the pACT-HAB1 template lacks the three N-terminal amino acids of HAB1; also called HAB^!-2
T3 sequence: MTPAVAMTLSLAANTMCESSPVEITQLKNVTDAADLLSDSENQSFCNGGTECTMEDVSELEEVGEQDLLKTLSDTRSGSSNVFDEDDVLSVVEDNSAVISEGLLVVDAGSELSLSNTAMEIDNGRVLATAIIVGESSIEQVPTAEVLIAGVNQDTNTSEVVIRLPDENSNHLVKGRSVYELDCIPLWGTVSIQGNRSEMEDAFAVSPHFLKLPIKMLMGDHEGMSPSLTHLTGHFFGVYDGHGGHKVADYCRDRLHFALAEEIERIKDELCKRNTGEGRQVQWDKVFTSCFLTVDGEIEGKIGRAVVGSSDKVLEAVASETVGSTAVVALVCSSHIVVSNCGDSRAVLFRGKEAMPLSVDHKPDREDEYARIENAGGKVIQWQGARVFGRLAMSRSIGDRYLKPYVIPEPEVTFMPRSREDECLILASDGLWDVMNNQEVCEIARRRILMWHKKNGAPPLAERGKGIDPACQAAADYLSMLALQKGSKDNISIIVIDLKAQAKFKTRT
Nature of the experiment: Y2H, mandipropamid (FIG. 3).

Turning to “GAL4 DNA binding domain fusion to PYR1*^-MANDI (PYR1^Y58H;K59R;V81I;F108A;S122G;M158I;F159V;A160V;T162D) (from UniProt P04386 1-147) (receptor)”, the fold less sensitive to mandipropamid relative to HAB1^!-2 in experiment [1] amounted to 10 fold. The fold less sensitivity to mandipropamid than the orthogonal interaction in experiment [2] stood at 10 fold. In experiment [3], “GAL4 DNA binding domain fusion to PYR1^T162D (from UniProt P04386 1-147) (receptor)” showed a fold less sensitive to ABA than wild type pBD-PYR1/pACT-HAB1 control cells of 4 fold.

B1: GST-HAB1* (recombinant, E. coli) (enzyme)
chain: MTPAVAMTLSLAANTMCESSPVEITQLKNVTDAADLLSDSENQSFCNGGTECTMEDVSELEEVGEQDLLKTLSDTRSGSSNVFDEDDVLSVVEDNSAVISEGLLVVDAGSELSLSNTAMEIDNGRVLATAIIVGESSIEQVPTAEVLIAGVNQDTNTSEVVIRLPDENSNHLVKGRSVYELDCIPLWGTVSIQGNASEMEAAFAVSPHFLKLPIKMLMGDHEGMSPSLTHLTGHFFGVYDGHGGHKVADYCRDRLHFALAEEIERIKDELCKRNTGEGRQVQWDKVFTSCFLTVDGEIEGKIGRAVVGSSDKVLEAVADETVGSTAVVALVCSSHIVVSNCGDSRAVLFRGKEAMPLSVDHKPDREDEYARIENAGGKVIQWQGARVFGRLAMSRSIGDRYLKPYVIPEPEVTFMPRSREDECLILASDGLWDVMNNQEVCEIARRRILMWHKKNGAPPLAERGKGIDPACQAAADYLSMLALQKGSKDNISIIVIDLKAQAKFKTRT
notes: Cloned into pGEX-4T-1; not shown: glutathione S-transferase (GST) of pGEX-4T-1
In the case of B1, the binding result in experiment [4] was “no binding”.

B2: GAL4 DNA binding domain fusion to PYR1^!-MANDI (PYR1^Y58H;K59R;V81I;F108A;S122G;F159L;T162D) (receptor, not shown: small tags and cut ends)
chain: MPSELTPEERSELKNSIAEFHTYQLDPGSCSSLHAQRIHAPPELVWSIVRRFDKPQTHRHFIKSCSVEQNFEMRVGCTRDIIVISGLPANTSTERLDILDDERRVTGASIIGGEHRLTNYKGVTTVHRFEKENRIWTVVLESYVVDMPEGNSEDDTRMLADDVVKLNLQKLATVAEAMARNSGDGSGSQVT
notes: Septuple mutant; also called pBD-PYR1^!-MANDI
Turning to B2, the “fold less sensitive to mandipropamid than the PYR1^MANDI/HAB1 interaction” value in experiment [5] and in experiment [6] was about 100 fold in each case.
